The experiment addresses FLAG epitope Trypsin site N-terminally tagged 9 repeat GG biopolymer (SEQ ID NO:20).

The substance Trypsin (type XI DPCC treated) (enzyme) came in with a completeness of the Trypsin cleavage reaction, by relative mobility on SDS gels of 100%.

The values above are taken from patent US5710252.
